Source: patent publication US5756665A, “Peptide isolated from micrococcus varians and use thereof” (priority 1995, dated 1998)

Experiments:
Format in all cases: cell-based
[1] = system: strain Lactococcus lactis which produces lacticin 481; assay: Inhibition spectrum test on the lacticin 481 producer
[2] = system: Lactobacillus helveticus (N 2); assay: Inactivation by enzymes, agar well test
[3] = system: Lactobacillus helveticus (N 2); assay: Resistance to pH, agar well test; conditions: pH 2 to 10
[4] = system: Lactobacillus helveticus (N 2); assay: Resistance to heat, agar well test; conditions: 60 min incubation at 100 °C
[5] = system: Lactobacillus helveticus (N 2); assay: Resistance to heat and to pH, agar well test; conditions: pH 4 or 7 combined with elevated temperature
Gram-negative bacteria = assay: Inhibition spectrum, summary for Gram-negative bacteria; conditions: summary of Table V
Source text: The inhibition spectrum of the supernatant is thus determined.

Row | Substance | growth of the lacticin 481-producing strain in the presence of the bacteriocin [1] | influence of catalase on bactericidal activity ([2]; Tables I and II, two indicator strains) | effect of proteolytic enzymes on bactericidal activity ([2]; all proteolytic enzymes of Tables I and II) | pH dependence of bactericidal activity [3] | bactericidal activity after heat [4] | bactericidal activity after heat and pH [5] | inhibitory effect on the growth of Gram-negative bacteria (Gram-negative bacteria)
1 | lacticin 481 | immune |  |  |  |  |  | 
2 | variacin: bacteriocin from Micrococcus varians strains CNCM I-1586 and CNCM I-1587, amino acid sequence SEQ ID NO:1, 2659 daltons (GSGVIPTISHECHMNSFQFVFTCCS) |  | not found to exert any influence | suppress the bactericidal activity | not pH-dependent | not compromised | not compromised | does not exert any inhibitory effect
